The results in this text go back to US20080125498A1, “TREATMENT OF NEURODEGENERATIVE DISEASES AND CONDITIONS USING PAR1 ANTAGONISTS” (priority 2001, published 2008).

Holding throughout (assay): cell-based or functional assay
The target in test [1] is protease-activated receptor 1 (PAR1), rat, endogenous in hippocampal neurons (rat) (UniProt P26824).
The target of test [2] is recombinant NR1 subunit in NR1/NR2A and NR1/NR2B NMDA receptors expressed in Xenopus oocytes.
For a further test, the target named is alpha-thrombin.

protease-activated receptor 1 (PAR1), rat, endogenous in hippocampal neurons (rat), sequence (P26824 46-432): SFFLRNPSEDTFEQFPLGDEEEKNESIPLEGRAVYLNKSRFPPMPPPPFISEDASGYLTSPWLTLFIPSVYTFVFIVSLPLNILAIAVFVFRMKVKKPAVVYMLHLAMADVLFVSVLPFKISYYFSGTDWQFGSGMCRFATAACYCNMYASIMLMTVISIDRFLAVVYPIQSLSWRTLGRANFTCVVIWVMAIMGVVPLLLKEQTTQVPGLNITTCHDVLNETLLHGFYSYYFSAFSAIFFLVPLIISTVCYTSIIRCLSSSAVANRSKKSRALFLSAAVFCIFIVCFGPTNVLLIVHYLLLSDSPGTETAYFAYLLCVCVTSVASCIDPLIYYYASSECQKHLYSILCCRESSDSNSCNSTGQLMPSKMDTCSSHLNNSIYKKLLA

For alpha-thrombin (enzyme), in test [1], the average peak potentiation of NMDA responses in CA1 pyramidal cells at -40 mV in 1.4 mM Mg2+ was determined as 1.48 fold, the average peak potentiation of NMDA responses in CA1 pyramidal cells at -70 mV in 1.4 mM Mg2+ is 2.1 fold and the peak potentiation of NMDA responses at -70 mV in CA1 pyramidal neurons was 2.07 fold. In addition, the NMDA receptor current response amplitude in oocytes after 300-1000 nM thrombin for 60 minutes in test [2] is 42%.
As for hirudin, the potentiation by thrombin of NMDA responses in the presence of hirudin with alpha-thrombin was found to be 0.96 fold.
